# Source: patent US20240083965A1 (Novo Nordisk, published 2024)
# *1 amine or outer side, *2 acyl side, *3 side chain or, on linkers, in order; H or OH if unused. Where no end group is shown, it is not given here. Side-chain parts run from the residue outwards. [ ]: non-standard residue; d: D form. The star is where a group is joined. C16 diacid = O=C(O)CCCCCCCCCCCCCCC(=O)*; γGlu = O=C(O)[C@H](CCC(=O)[*:2])N[*:1]; AEEA = NCCOCCOCC(=O)O; Aib = CC(C)(N)C(=O)O
# B1: Parent compound No. 1 (peptide)
# peptide: Y[Aib]EGTFTSDYSILLEEQAAREFIEWLLAGGPSK([AEEA-AEEA-γGlu-C16 diacid])GAPPPS-OH
# modifications: N-terminus assumed
# SMILES: CC[C@H](C)[C@H](NC(=O)[C@H](Cc1ccccc1)NC(=O)[C@H](CCC(=O)O)NC(=O)[C@H](CCCNC(=N)N)NC(=O)[C@H](C)NC(=O)[C@H](C)NC(=O)[C@H](CCC(N)=O)NC(=O)[C@H](CCC(=O)O)NC(=O)[C@H](CCC(=O)O)NC(=O)[C@H](CC(C)C)NC(=O)[C@H](CC(C)C)NC(=O)[C@@H](NC(=O)[C@H](CO)NC(=O)[C@H](Cc1ccc(O)cc1)NC(=O)[C@H](CC(=O)O)NC(=O)[C@H](CO)NC(=O)[C@@H](NC(=O)[C@H](Cc1ccccc1)NC(=O)[C@@H](NC(=O)CNC(=O)[C@H](CCC(=O)O)NC(=O)C(C)(C)NC(=O)[C@@H](N)Cc1ccc(O)cc1)[C@@H](C)O)[C@@H](C)O)[C@@H](C)CC)C(=O)N[C@@H](CCC(=O)O)C(=O)N[C@@H](Cc1c[nH]c2ccccc12)C(=O)N[C@@H](CC(C)C)C(=O)N[C@@H](CC(C)C)C(=O)N[C@@H](C)C(=O)NCC(=O)NCC(=O)N1CCC[C@H]1C(=O)N[C@@H](CO)C(=O)N[C@@H](CCCCNC(=O)COCCOCCNC(=O)COCCOCCNC(=O)CC[C@H](NC(=O)CCCCCCCCCCCCCCC(=O)O)C(=O)O)C(=O)NCC(=O)N[C@@H](C)C(=O)N1CCC[C@H]1C(=O)N1CCC[C@H]1C(=O)N1CCC[C@H]1C(=O)N[C@@H](CO)C(=O)O
# Molecular target: T1, human GIP receptor (human, UniProt P48546 22-466)
# T1 sequence (looked up): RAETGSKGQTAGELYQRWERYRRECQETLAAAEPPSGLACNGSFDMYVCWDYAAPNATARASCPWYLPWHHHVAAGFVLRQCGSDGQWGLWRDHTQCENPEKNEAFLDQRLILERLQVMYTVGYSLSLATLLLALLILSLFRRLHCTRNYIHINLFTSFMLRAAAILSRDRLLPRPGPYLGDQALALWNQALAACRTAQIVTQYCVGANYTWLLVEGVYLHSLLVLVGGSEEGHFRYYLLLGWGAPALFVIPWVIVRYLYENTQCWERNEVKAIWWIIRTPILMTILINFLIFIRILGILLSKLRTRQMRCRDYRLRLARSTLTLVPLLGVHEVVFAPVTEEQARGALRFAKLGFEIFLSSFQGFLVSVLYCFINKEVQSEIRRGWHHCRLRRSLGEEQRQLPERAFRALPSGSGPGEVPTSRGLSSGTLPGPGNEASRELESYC
# Experiment: cell-based or functional assay
Molecule,"hGIPR, CRE Luc 0% HSA EC50 (pM)","hGIPR, CRE Luc 1% HSA EC50 (pM)"
human GIP (from UniProt P09681 52-93) (ligand),11.3 pM,6.4 pM
Y[Aib]EGTFTSDYSILLEEQAAREFIEWLLAGGPSKGAPPPS-OH (not fully specified (residue 33)) [Parent compound No. 2],1.8 pM,97 pM
B1,3.1 pM,156 pM
Y[Aib]EGTFTSDYSILLEEQAAREFIEWLLAGGPSKGAPPPS-OH (not fully specified (residue 33)) [Parent compound No. 3],5.6 pM,444 pM
Y[Aib]EGTFTSDYSILLEKQAAREFIEWLLAGGPSSGAPPPS-OH (not fully specified (residue 16)) [Parent compound No. 4],4.7 pM,188 pM

# Molecular target: human GLP-1 receptor (human, UniProt P43220 24-463)
# Experiment: cell-based or functional assay
Molecule,"hGLP-1R, CRE Luc 0% HSA EC50 (pM)","hGLP-1R, CRE Luc 1% HSA EC50 (pM)"
Y[Aib]EGTFTSDYSILLEEQAAREFIEWLLAGGPSKGAPPPS-OH (not fully specified (residue 33)) [Parent compound No. 2],1.5 pM,111 pM
B1,2.1 pM,154 pM
Y[Aib]EGTFTSDYSILLEEQAAREFIEWLLAGGPSKGAPPPS-OH (not fully specified (residue 33)) [Parent compound No. 3],4 pM,360 pM
Y[Aib]EGTFTSDYSILLEKQAAREFIEWLLAGGPSSGAPPPS-OH (not fully specified (residue 16)) [Parent compound No. 4],4.2 pM,202 pM
